# Reference: article PMC4065035, “A Highly Functional Synthetic Phage Display Library Containing over 40 Billion Human Antibody Clones” (PLoS ONE, 2014)
# B1: scFv(G5), human antibody G5 in monomeric scFv format (scFv, V domains shown)
# VH: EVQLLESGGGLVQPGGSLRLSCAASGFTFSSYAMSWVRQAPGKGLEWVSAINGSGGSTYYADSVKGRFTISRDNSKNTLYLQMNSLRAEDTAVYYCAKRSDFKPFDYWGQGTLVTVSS
# VL: SSELTQDPAVSVALGQTVRITCQGDSLRSYYASWYQQKPGQAPVLVIYGKNNRPSGIPDRFSGSSSGNTASLTITGAQAEDEADYYCNSSGFPRTLVVFGGGTKLTVL
# notes: VH of G5; library VH is on the DP47 germline with S52N (numbering of Tomlinson et al.) and a randomised CDR3 (residues 95-100); flexible polypeptide linker that connects VH and VL in the library's scFv format; VL of G5; Library scFv are detected by the anti-myc antibody 9E10; also called G5 antibody clone; anti-BCD antibody G5; source: E. coli (pHEN1 phagemid, IPTG induction), purified over …
# Legend:
# [1] = target: T1, murine recombinant BCD domains of tenascin-C (Mus musculus, UniProt Q80YX1); assay: SPR; Biacore 3000; CM5 chip coated with murine or human recombinant BCD domains of tenascin-C; antibody (monomeric fraction of scFv, or SIP) injected at different concentrations, 10 µL/min; regeneration with 10 mM HCl; conditions: both partners purified
# T1 construct: tenascin-C, mouse, alternatively spliced segment of the three fibronectin type-III homology domains B, C and D; A biotinylated version was used for the panning; the Biacore chip was a coated CM5 chip; also called murine BCD; murine BCD antigen; source: E. coli (pQE12 vector), purified over NiNTA resin
# [2] = target: T2, human recombinant BCD domains of tenascin-C (Homo sapiens, UniProt P24821); assay: as above; conditions: both partners purified
# T2 construct: tenascin-C, human, alternatively spliced segment of the three fibronectin type-III homology domains B, C and D; AVI-Tag followed by the His-Tag at the C-terminus; Purification of the human construct is not clearly told; also called human BCD; human BCD domain; source: E. coli (pUC119 vector)
binder,measurement,setting,value
B1,Kd,[1],31 nM
same,koff,[1],0.0025 s⁻¹
same,kon,[1],79000 M⁻¹ s⁻¹
same,Kd,[2],27 nM
same,koff,[2],0.003 s⁻¹
same,kon,[2],110000 M⁻¹ s⁻¹
